These results are taken from the supplement of paper PMC9112550, “Optimization of the antimicrobial peptide Bac7 by deep mutational scanning” (BMC Biology, 2022).

The test system of the series is Escherichia coli TOP10. Description: shrunken log2 fold change of peptide-encoding DNA abundance (4.5 h post-induction vs induction); higher = less antimicrobial activity (less host growth inhibition). The conditions noted are these: time post-induction: 4.5 h; library: site-saturation at positions 5, 18, 19, 20.
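Further: peptides expressed intracellularly from a pBAD plasmid library in pooled LB shake-flask culture, induced with 0.3% L-arabinose, DNA abundance read by NGS, three biological replicates, DESeq2 with apeglm shrinkage.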

Regarding RRIRTRPPRLPRPRPRPWICPRP, the “shrunken log2 fold change” value is 0.0207. In the case of RRIRIRPPRLPRPRPRPQMFPRP it was -0.65; in that of RRIRFRPPRLPRPRPRPNWNPRP, -0.42; in that of RRIRHRPPRLPRPRPRPHIWPRP, -0.835. On to RRIRTRPPRLPRPRPRPCRKPRP, for which the “shrunken log2 fold change” value is -0.0644. For RRIRTRPPRLPRPRPRPHPIPRP, the “shrunken log2 fold change” value is -0.165.

Turning to RRIRTRPPRLPRPRPRPNRQPRP, the “shrunken log2 fold change” value was found to be 0.0749.

As for RRIRRRPPRLPRPRPRPTRVPRP, the “shrunken log2 fold change” value amounted to 0.952. In the case of RRIRSRPPRLPRPRPRPYCWPRP it was -0.419; in that of RRIRDRPPRLPRPRPRPVKWPRP, 0.00911. In the case of RRIRMRPPRLPRPRPRPKILPRP it was 0.289; in that of RRIRIRPPRLPRPRPRPFAWPRP, 0.00684; in that of RRIRLRPPRLPRPRPRPHISPRP, -0.272. With RRIRKRPPRLPRPRPRPVTVPRP, the “shrunken log2 fold change” value was -0.0834. In the case of RRIRCRPPRLPRPRPRPILTPRP it was -0.302; in that of RRIRVRPPRLPRPRPRPVEDPRP, -0.378.

Regarding RRIRSRPPRLPRPRPRPVFLPRP, the “shrunken log2 fold change” value was -0.131. With RRIRYRPPRLPRPRPRPQVDPRP, the “shrunken log2 fold change” value was -0.205. In the case of RRIRMRPPRLPRPRPRPVINPRP it was -0.305; in that of RRIRIRPPRLPRPRPRPMKSPRP, -0.161; in that of RRIRMRPPRLPRPRPRPFWSPRP, -0.123.

In the case of RRIRPRPPRLPRPRPRPIQNPRP, the “shrunken log2 fold change” value was -0.11.

In the case of RRIRRRPPRLPRPRPRPETRPRP, the “shrunken log2 fold change” value turned out to be 0.644. In the case of RRIRVRPPRLPRPRPRPMELPRP it was -0.135; in that of RRIRERPPRLPRPRPRPAMQPRP, 0.0339. For RRIRNRPPRLPRPRPRPMECPRP, the “shrunken log2 fold change” value was -0.0276. For the sequence RRIRGRPPRLPRPRPRPRAQPRP, the “shrunken log2 fold change” value was found to be 0.778.

As to RRIRNRPPRLPRPRPRPICKPRP, the “shrunken log2 fold change” value was 0.0454.

As to RRIRSRPPRLPRPRPRPIFPPRP, the “shrunken log2 fold change” value came out at 1.04. In the case of RRIRKRPPRLPRPRPRPFIVPRP it was -0.345. Regarding RRIRFRPPRLPRPRPRPCSVPRP, the “shrunken log2 fold change” value is -0.338. In the case of RRIRERPPRLPRPRPRPNCQPRP it was -0.0295; in that of RRIRNRPPRLPRPRPRPLDKPRP, -0.186; in that of RRIRFRPPRLPRPRPRPDNSPRP, -0.726. In the case of RRIRFRPPRLPRPRPRPQHPPRP it was -0.326; in that of RRIRQRPPRLPRPRPRPCNVPRP, -0.0261. In the case of RRIRKRPPRLPRPRPRPKYAPRP it was 0.208; in that of RRIRSRPPRLPRPRPRPLSEPRP, -0.48; in that of RRIRHRPPRLPRPRPRPRLGPRP, 0.143. For the sequence RRIRDRPPRLPRPRPRPMLTPRP, the “shrunken log2 fold change” value was found to be 0.155. In the case of RRIRLRPPRLPRPRPRPSFPPRP it was -0.159; in that of RRIRQRPPRLPRPRPRPTEKPRP, -0.047. For the sequence RRIRERPPRLPRPRPRPSYQPRP, the “shrunken log2 fold change” value is -0.469. RRIRDRPPRLPRPRPRPSISPRP: the “shrunken log2 fold change” value is -0.0844. With RRIRNRPPRLPRPRPRPHPGPRP, the “shrunken log2 fold change” value is -0.0788.
